According to US20220275088A1:

Tests used:
[1] = biological target: human PD-1 on cells (transfected Expi293 cells, PHA-cultured T cells, cells of the Promega PD1-PDL1 bioassay, T cells of the MLR) (human) (UniProt Q15116); assay: cell-based or functional assay
[2] = biological target: soluble PD-1 (biotinylated PD-1; expi293 expressed soluble PD1-avi) (human) (UniProt Q15116); assay: method not named at the list; Octet (BLI) on biotinylated PD-1 by context
[3] = biological target: soluble PD-1 (biotinylated PD-1; expi293 expressed soluble PD1-avi) (human) (UniProt Q15116); assay: Octet (BLI)

Sequence of soluble PD-1 (biotinylated PD-1; expi293 expressed soluble PD1-avi) (human) (Q15116 25-170): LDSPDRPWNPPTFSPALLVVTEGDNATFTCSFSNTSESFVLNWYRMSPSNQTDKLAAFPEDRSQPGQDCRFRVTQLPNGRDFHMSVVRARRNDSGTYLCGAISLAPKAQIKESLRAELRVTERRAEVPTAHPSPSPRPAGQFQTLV
Sequence of human PD-1 on cells (transfected Expi293 cells, PHA-cultured T cells, cells of the Promega PD1-PDL1 bioassay, T cells of the MLR) (human) (Q15116 25-288): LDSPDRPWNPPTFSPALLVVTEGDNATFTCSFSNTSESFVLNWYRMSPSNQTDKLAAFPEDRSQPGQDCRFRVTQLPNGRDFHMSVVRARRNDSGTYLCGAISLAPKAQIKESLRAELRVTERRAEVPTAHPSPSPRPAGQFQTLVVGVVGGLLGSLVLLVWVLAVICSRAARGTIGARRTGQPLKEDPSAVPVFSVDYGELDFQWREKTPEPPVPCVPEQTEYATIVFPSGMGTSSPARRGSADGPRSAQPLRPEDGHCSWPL

Binder	EC50 against Nivo, Promega PD1-PDL1 bioassay (fold of the EC50 of Nivo) [1]	Kd [2]	Kd [3]	koff [3]	kon [3]
P4-B3 minibody (scFv-Fc) (Fc fusion, part only; not given: Hinge, Fc, domain order, not shown: another chain or arm of the molecule; a dimerising Fc or GST; small tags and cut ends) VH: QVQLVQSGGGLVQPGRSLRLSCAASGFTFDDYAMHWVRQAPGKGLEWVSGISWNSGSIGYADSVKGRFTVSRDNAKNSLYLQMNSLRAEDTAVYYCASDYGDKYYYYGMDVWGKGTTVTVSS VL: QPGLTQPPSASGTPGQRVTISCSGSSSNIGSNTVNWYQQFPGKAPKLLIFNDNQRPSGVPDRFSASKSGTSASLAISGLQSEDEADYYCAAWDGGLNGRGVFGGGTKLTVL	1.75	1 nM			
P4-B3 scFv (scFv, part only; not given: Linker, domain order, tag, V domains shown, not shown: another chain or arm of the molecule; small tags and cut ends) VH: QVQLVQSGGGLVQPGRSLRLSCAASGFTFDDYAMHWVRQAPGKGLEWVSGISWNSGSIGYADSVKGRFTVSRDNAKNSLYLQMNSLRAEDTAVYYCASDYGDKYYYYGMDVWGKGTTVTVSS VL: QPGLTQPPSASGTPGQRVTISCSGSSSNIGSNTVNWYQQFPGKAPKLLIFNDNQRPSGVPDRFSASKSGTSASLAISGLQSEDEADYYCAAWDGGLNGRGVFGGGTKLTVL			0.94 nM	6.45e-05 s⁻¹	68500 M⁻¹ s⁻¹
